Patent US20140087995A1 (published 2014)
Numbered stars: 1 amine (or outer) side, 2 acyl side, 3 side chain; on linkers, the order of the positions; unused ones are H or OH. Bridge positions count the residues as written; N and C are the ends. Side chains are listed from the residue outwards. Ends that are not written are not given here. * marks the point of attachment. C20 diacid = O=C(O)CCCCCCCCCCCCCCCCCCC(=O)*; γGlu = O=C(O)[C@H](CCC(=O)[*:2])N[*:1]; AEEA = NCCOCCOCC(=O)O

T1: human calcitonin receptor (human, UniProt P30988 25-474)
T1 construct: whole, on cells; also called hCTR; hCT
T1 sequence (looked up): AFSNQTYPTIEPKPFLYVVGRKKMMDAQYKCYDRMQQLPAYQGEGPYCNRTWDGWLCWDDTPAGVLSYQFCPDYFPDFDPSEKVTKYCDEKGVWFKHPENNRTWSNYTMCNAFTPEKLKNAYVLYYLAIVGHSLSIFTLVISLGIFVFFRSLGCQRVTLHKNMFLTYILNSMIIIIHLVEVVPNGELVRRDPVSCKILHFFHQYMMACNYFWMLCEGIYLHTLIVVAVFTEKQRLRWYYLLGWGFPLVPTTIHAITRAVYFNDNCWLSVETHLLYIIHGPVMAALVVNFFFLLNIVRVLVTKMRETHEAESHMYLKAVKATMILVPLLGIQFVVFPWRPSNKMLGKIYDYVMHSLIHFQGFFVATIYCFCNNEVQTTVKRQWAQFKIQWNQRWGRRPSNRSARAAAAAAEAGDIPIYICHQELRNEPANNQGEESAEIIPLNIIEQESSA


The binders below were run against T1, human calcitonin receptor (assay: SPA competition with 125I-calcitonin, membranes of BHK hCTR cells (Assay VII)).
Method: Membranes were prepared in the following way; the cells were rinsed with PBS and incubated with Versene for approximately 5 min before harvesting. The cells were flushed with PBS and the cell-suspension was centrifuged for 5 min at 1000 rpm. Cells were homogenized (Ultrathurrax) in a buffer containing 20 mM Na-HEPES and 10 mM EDTA (pH 7.4) and centrifuged at 20.000 rpm for 15 min. The resulting pellet was resuspended, homogenized and centrifuged (20.000 rpm, 15 min) in a buffer containing 20 mM Na-HEPES and 0.1 mM EDTA (pH 7.4, buffer 2). The resulting pellet was resuspended in buffer 2 and protein concentration was measured (BCA protein Assay, Pierce). The homogenate was kept cold during the whole procedure. The membranes were kept at −80° C. until use. Assay was performed in a 384 well Optiplate (PerkinElmer) in a total volume of 40 ul. Membranes were mixed with SPA beads. Final concentration of membranes 35 ng/μL final and Final concentration of SPA beads was 0.05 mg/well. Test-compounds were dissolved in DMSO and further diluted in assay buffer (50 mM Hepes, pH 7.4, 1 mM CaCl2, 5 mM MgCl₂, 0.1% OA and 0.02% Tween20). […] The final mixture was incubated for 120 min with shaking at 400 rpm at 25° C. prior to centrifugation (1500 rpm, 10 min). Samples were analyzed on TopCounter™ (Packard). The […] was calculated using (one site binding competition analysis) GraphPad Prism5 as a measure of receptor affinity.

IC50	Binder
0.0424 µM	K([AEEA-γGlu-C20 diacid])CNTATCATQRLAAFLRHSSPNFGAIPSSTPVGSNTY-NH2 (disulfide 2-7; N-terminus assumed; SMILES CC[C@H](C)[C@H](NC(=O)[C@H](C)NC(=O)CNC(=O)[C@H](Cc1ccccc1)NC(=O)[C@H](CC(N)=O)NC(=O)[C@@H]1CCCN1C(=O)[C@H](CO)NC(=O)[C@H](CO)NC(=O)[C@H](Cc1c[nH]cn1)NC(=O)[C@H](CCCNC(=N)N)NC(=O)[C@H](CC(C)C)NC(=O)[C@H](Cc1ccccc1)NC(=O)[C@H](C)NC(=O)[C@H](C)NC(=O)[C@H](CC(C)C)NC(=O)[C@H](CCCNC(=N)N)NC(=O)[C@H](CCC(N)=O)NC(=O)[C@@H](NC(=O)[C@H](C)NC(=O)[C@@H]1CSSC[C@H](NC(=O)[C@@H](N)CCCCNC(=O)COCCOCCNC(=O)CC[C@H](NC(=O)CCCCCCCCCCCCCCCCCCC(=O)O)C(=O)O)C(=O)N[C@@H](CC(N)=O)C(=O)N[C@@H]([C@@H](C)O)C(=O)N[C@@H](C)C(=O)N[C@@H]([C@@H](C)O)C(=O)N1)[C@@H](C)O)C(=O)N1CCC[C@H]1C(=O)N[C@@H](CO)C(=O)N[C@@H](CO)C(=O)N[C@H](C(=O)N1CCC[C@H]1C(=O)N[C@H](C(=O)NCC(=O)N[C@@H](CO)C(=O)N[C@@H](CC(N)=O)C(=O)N[C@H](C(=O)N[C@@H](Cc1ccc(O)cc1)C(N)=O)[C@@H](C)O)C(C)C)[C@@H](C)O, also called compound 72)
0.00217 µM	K([AEEA-γGlu-C20 diacid])CNTATCATQRLANFLRHSSPNFGAIPPSTNVGPNTY-NH2 (disulfide 2-7; N-terminus assumed; SMILES CC[C@H](C)[C@H](NC(=O)[C@H](C)NC(=O)CNC(=O)[C@H](Cc1ccccc1)NC(=O)[C@H](CC(N)=O)NC(=O)[C@@H]1CCCN1C(=O)[C@H](CO)NC(=O)[C@H](CO)NC(=O)[C@H](Cc1c[nH]cn1)NC(=O)[C@H](CCCNC(=N)N)NC(=O)[C@H](CC(C)C)NC(=O)[C@H](Cc1ccccc1)NC(=O)[C@H](CC(N)=O)NC(=O)[C@H](C)NC(=O)[C@H](CC(C)C)NC(=O)[C@H](CCCNC(=N)N)NC(=O)[C@H](CCC(N)=O)NC(=O)[C@@H](NC(=O)[C@H](C)NC(=O)[C@@H]1CSSC[C@H](NC(=O)[C@@H](N)CCCCNC(=O)COCCOCCNC(=O)CC[C@H](NC(=O)CCCCCCCCCCCCCCCCCCC(=O)O)C(=O)O)C(=O)N[C@@H](CC(N)=O)C(=O)N[C@@H]([C@@H](C)O)C(=O)N[C@@H](C)C(=O)N[C@@H]([C@@H](C)O)C(=O)N1)[C@@H](C)O)C(=O)N1CCC[C@H]1C(=O)N1CCC[C@H]1C(=O)N[C@@H](CO)C(=O)N[C@H](C(=O)N[C@@H](CC(N)=O)C(=O)N[C@H](C(=O)NCC(=O)N1CCC[C@H]1C(=O)N[C@@H](CC(N)=O)C(=O)N[C@H](C(=O)N[C@@H](Cc1ccc(O)cc1)C(N)=O)[C@@H](C)O)C(C)C)[C@@H](C)O, also called compound 55)
0.056 µM	K([AEEA-γGlu-C20 diacid])CNTATCATQRLARFLRHSSPNFGAIPSSTPVGSNTY-NH2 (disulfide 2-7; N-terminus assumed; SMILES CC[C@H](C)[C@H](NC(=O)[C@H](C)NC(=O)CNC(=O)[C@H](Cc1ccccc1)NC(=O)[C@H](CC(N)=O)NC(=O)[C@@H]1CCCN1C(=O)[C@H](CO)NC(=O)[C@H](CO)NC(=O)[C@H](Cc1c[nH]cn1)NC(=O)[C@H](CCCNC(=N)N)NC(=O)[C@H](CC(C)C)NC(=O)[C@H](Cc1ccccc1)NC(=O)[C@H](CCCNC(=N)N)NC(=O)[C@H](C)NC(=O)[C@H](CC(C)C)NC(=O)[C@H](CCCNC(=N)N)NC(=O)[C@H](CCC(N)=O)NC(=O)[C@@H](NC(=O)[C@H](C)NC(=O)[C@@H]1CSSC[C@H](NC(=O)[C@@H](N)CCCCNC(=O)COCCOCCNC(=O)CC[C@H](NC(=O)CCCCCCCCCCCCCCCCCCC(=O)O)C(=O)O)C(=O)N[C@@H](CC(N)=O)C(=O)N[C@@H]([C@@H](C)O)C(=O)N[C@@H](C)C(=O)N[C@@H]([C@@H](C)O)C(=O)N1)[C@@H](C)O)C(=O)N1CCC[C@H]1C(=O)N[C@@H](CO)C(=O)N[C@@H](CO)C(=O)N[C@H](C(=O)N1CCC[C@H]1C(=O)N[C@H](C(=O)NCC(=O)N[C@@H](CO)C(=O)N[C@@H](CC(N)=O)C(=O)N[C@H](C(=O)N[C@@H](Cc1ccc(O)cc1)C(N)=O)[C@@H](C)O)C(C)C)[C@@H](C)O, also called compound 64)
0.00438 µM	K([AEEA-γGlu-C20 diacid])CNTATCATQRLANFLRHSSPNFGAIPSPTPVGSNTY-NH2 (disulfide 2-7; N-terminus assumed; SMILES CC[C@H](C)[C@H](NC(=O)[C@H](C)NC(=O)CNC(=O)[C@H](Cc1ccccc1)NC(=O)[C@H](CC(N)=O)NC(=O)[C@@H]1CCCN1C(=O)[C@H](CO)NC(=O)[C@H](CO)NC(=O)[C@H](Cc1c[nH]cn1)NC(=O)[C@H](CCCNC(=N)N)NC(=O)[C@H](CC(C)C)NC(=O)[C@H](Cc1ccccc1)NC(=O)[C@H](CC(N)=O)NC(=O)[C@H](C)NC(=O)[C@H](CC(C)C)NC(=O)[C@H](CCCNC(=N)N)NC(=O)[C@H](CCC(N)=O)NC(=O)[C@@H](NC(=O)[C@H](C)NC(=O)[C@@H]1CSSC[C@H](NC(=O)[C@@H](N)CCCCNC(=O)COCCOCCNC(=O)CC[C@H](NC(=O)CCCCCCCCCCCCCCCCCCC(=O)O)C(=O)O)C(=O)N[C@@H](CC(N)=O)C(=O)N[C@@H]([C@@H](C)O)C(=O)N[C@@H](C)C(=O)N[C@@H]([C@@H](C)O)C(=O)N1)[C@@H](C)O)C(=O)N1CCC[C@H]1C(=O)N[C@@H](CO)C(=O)N1CCC[C@H]1C(=O)N[C@H](C(=O)N1CCC[C@H]1C(=O)N[C@H](C(=O)NCC(=O)N[C@@H](CO)C(=O)N[C@@H](CC(N)=O)C(=O)N[C@H](C(=O)N[C@@H](Cc1ccc(O)cc1)C(N)=O)[C@@H](C)O)C(C)C)[C@@H](C)O, also called compound 54)
0.0253 µM	K([AEEA-γGlu-C20 diacid])CNTATCATQRLANFLRHSSPNFGAIPSSTNVGSETY-NH2 (disulfide 2-7; N-terminus assumed; SMILES CC[C@H](C)[C@H](NC(=O)[C@H](C)NC(=O)CNC(=O)[C@H](Cc1ccccc1)NC(=O)[C@H](CC(N)=O)NC(=O)[C@@H]1CCCN1C(=O)[C@H](CO)NC(=O)[C@H](CO)NC(=O)[C@H](Cc1c[nH]cn1)NC(=O)[C@H](CCCNC(=N)N)NC(=O)[C@H](CC(C)C)NC(=O)[C@H](Cc1ccccc1)NC(=O)[C@H](CC(N)=O)NC(=O)[C@H](C)NC(=O)[C@H](CC(C)C)NC(=O)[C@H](CCCNC(=N)N)NC(=O)[C@H](CCC(N)=O)NC(=O)[C@@H](NC(=O)[C@H](C)NC(=O)[C@@H]1CSSC[C@H](NC(=O)[C@@H](N)CCCCNC(=O)COCCOCCNC(=O)CC[C@H](NC(=O)CCCCCCCCCCCCCCCCCCC(=O)O)C(=O)O)C(=O)N[C@@H](CC(N)=O)C(=O)N[C@@H]([C@@H](C)O)C(=O)N[C@@H](C)C(=O)N[C@@H]([C@@H](C)O)C(=O)N1)[C@@H](C)O)C(=O)N1CCC[C@H]1C(=O)N[C@@H](CO)C(=O)N[C@@H](CO)C(=O)N[C@H](C(=O)N[C@@H](CC(N)=O)C(=O)N[C@H](C(=O)NCC(=O)N[C@@H](CO)C(=O)N[C@@H](CCC(=O)O)C(=O)N[C@H](C(=O)N[C@@H](Cc1ccc(O)cc1)C(N)=O)[C@@H](C)O)C(C)C)[C@@H](C)O, also called compound 26)
0.00538 µM	K([AEEA-γGlu-C20 diacid])CNTATCATQRLANFLRHSSPNFGAIPPSTPVGSNTY-NH2 (disulfide 2-7, also called compound 53)
